Results taken from patent US20170355734A1 (INSERM INSTITUT NATIONAL DE LA SANT ET DE LA RECHERCHE M …, published 2017).
Read-outs that look alike come from different tables or passages of the source. One block for each molecule: values may come before it. Where no end group is shown, it is not given here. [ ]: non-standard residue; d: D form. The star is where a group is joined. Propanoyl(3-C8F17) = O=C(CCC(F)(F)C(F)(F)C(F)(F)C(F)(F)C(F)(F)C(F)(F)C(F)(F)C(F)(F)F)*; Phe(4-Br) = N[C@@H](Cc1ccc(Br)cc1)C(=O)O; fluorocarbon group = not defined here; Palmitoyl = CCCCCCCCCCCCCCCC(=O)*; acyl group = not defined here; Nle = CCCC[C@H](N)C(=O)O; Aib = CC(C)(N)C(=O)O

Columns and labels:
[1] = target: T1, wild-type rat apelin receptor-EGFP (rat, UniProt Q9JHG3 1-377, EGFP is fused at the C-terminal (intracellular) end of the receptor. It is not included in the letters.); assay: cell-based or functional assay
T1 sequence: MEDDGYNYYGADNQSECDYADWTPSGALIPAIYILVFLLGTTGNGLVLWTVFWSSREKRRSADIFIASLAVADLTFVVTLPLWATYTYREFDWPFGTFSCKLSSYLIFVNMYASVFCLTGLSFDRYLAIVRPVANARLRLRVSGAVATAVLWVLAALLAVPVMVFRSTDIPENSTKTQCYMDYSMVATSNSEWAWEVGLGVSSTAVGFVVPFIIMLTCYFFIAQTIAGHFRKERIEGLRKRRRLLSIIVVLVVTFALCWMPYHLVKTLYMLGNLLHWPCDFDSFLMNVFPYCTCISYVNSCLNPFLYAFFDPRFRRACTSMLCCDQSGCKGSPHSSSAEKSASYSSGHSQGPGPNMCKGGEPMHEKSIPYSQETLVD

[2] = target: T1, wild-type rat apelin receptor-EGFP; assay: cell-based or functional assay; remark: listed apart in the source
[3] = target: T1, wild-type rat apelin receptor-EGFP; assay: cell-based or functional assay; remark: listed apart in the source
[4] = target: T1, wild-type rat apelin receptor-EGFP; assay: competitive radioligand binding vs [125I]-pE13F, membranes of CHO cells expressing rat apelin receptor-EGFP
[5] = target: T1, wild-type rat apelin receptor-EGFP; assay: as above; remark: listed apart in the source
[6] = target: T1, wild-type rat apelin receptor-EGFP; assay: competitive radioligand binding vs [125I]-pE13F, rat apelin receptor-EGFP in CHO membranes
[7] = target: T1, wild-type rat apelin receptor-EGFP; assay: cell-based or functional assay; remark: listed apart in the source
[8] = target: T1, wild-type rat apelin receptor-EGFP; assay: D-scanning; competitive radioligand binding vs [125I]-pE13F, rat apelin receptor-EGFP in CHO membranes
[9] = target: T1, wild-type rat apelin receptor-EGFP; assay: cell-based or functional assay; remark: listed apart in the source
[10] = target: T1, wild-type rat apelin receptor-EGFP; assay: radioligand binding on membrane preparation from CHO cells stably expressing the rat apelin receptor-EGFP
[11] = target: T1, wild-type rat apelin receptor-EGFP; assay: cell-based or functional assay; remark: listed apart in the source
[12] = target: T1, wild-type rat apelin receptor-EGFP; assay: cell-based or functional assay; remark: listed apart in the source
[13] = target: T1, wild-type rat apelin receptor-EGFP; assay: cell-based or functional assay; remark: listed apart in the source
[14] = target: T1, wild-type rat apelin receptor-EGFP; assay: cell-based or functional assay; remark: listed apart in the source
[15] = target: T1, wild-type rat apelin receptor-EGFP; assay: competitive radioligand binding vs [125I]-pE13F, membranes of CHO cells expressing rat apelin receptor-EGFP
Method: (§1) Crude membrane preparation from CHO stably expressing the wild-type rat apelin receptor-EGFP, were prepared as previously described (39). […] The reaction was stopped by adding ice-cold binding buffer and filtered through glass microfiber filters (Whatman GF/C filters). Radioactivity was counted in Wizard 1470 Wallac gamma counter (Perkin Elmer, Turku, Finland).

[16] = target: T1, wild-type rat apelin receptor-EGFP; assay: as above; remark: listed apart in the source
Method: as §1

[17] = target: T1, wild-type rat apelin receptor-EGFP; assay: as above; remark: listed apart in the source
Method: as §1

AT1 receptor, sequence (P30556 whole entry): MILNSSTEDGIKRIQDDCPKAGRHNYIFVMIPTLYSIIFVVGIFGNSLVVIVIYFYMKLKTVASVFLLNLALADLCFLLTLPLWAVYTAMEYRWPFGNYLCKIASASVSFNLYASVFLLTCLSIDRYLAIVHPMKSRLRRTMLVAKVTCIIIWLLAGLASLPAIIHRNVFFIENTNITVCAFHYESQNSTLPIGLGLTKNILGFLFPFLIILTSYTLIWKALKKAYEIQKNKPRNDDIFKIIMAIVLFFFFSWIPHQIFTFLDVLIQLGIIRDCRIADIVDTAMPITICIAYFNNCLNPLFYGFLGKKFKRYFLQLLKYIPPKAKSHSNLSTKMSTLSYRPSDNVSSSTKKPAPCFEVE

Molecule: Palmitoyl-KFRRQRPRLSHKGPMPF [JFM V-0196A]
IC50 cAMP inhibition [2]: 3.9 nM
cAMP production IC50 [2]: 3.9 nM
Ki [4]: 0.76 nM

Molecule: Ac-RPRLSHKGPMPF [Ac-R12F]
inhibition of forskolin-induced cAMP production IC50 [2]: 2.4 nM
Ki [6]: 1.4 nM

Molecule: Ac-KFRR[dQ]RPR[dL]S[Aib]K[dA]P[Nle]P[Phe(4-Br)] [P95]
cAMP production IC50 [7]: 0.34 nM
factor of improved affinity as compared to K17F [6]: 10 fold
IC50 [4]: 0.03 nM

Molecule: Ac-KFRRQRPR[dL]S[Aib]K[dA]P[Nle]P[Phe(4-Br)] (not fully specified (residue 3)) [P96]
cAMP production IC50 [7]: 0.45 nM
IC50 [4]: 0.11 nM

B2: P26 (peptide)
peptide: RPRLSXKAPXPF
HELM: PEPTIDE1{[ac].R.P.R.[dL].S.[Aib].K.[dA].P.[Nle].P.[O=C(O)[C@H](Cc1ccc(Br)cc1)N[*:1]]}$$$$V2.0
SMILES: CCCC[C@H](NC(=O)[C@@H]1CCCN1C(=O)[C@@H](C)NC(=O)[C@H](CCCCN)NC(=O)C(C)(C)NC(=O)[C@H](CO)NC(=O)[C@@H](CC(C)C)NC(=O)[C@H](CCCNC(=N)N)NC(=O)[C@@H]1CCCN1C(=O)[C@H](CCCNC(=N)N)NC(C)=O)C(=O)N1CCC[C@H]1C(=O)N[C@@H](Cc1ccc(Br)cc1)C(=O)O
ERK1/2 phosphorylation EC50 [2]: 72.1 nM
Internalization EC50 [2]: 2.1 nM
cAMP production IC50 [2]: 2.22 nM
inhibition of forskolin-induced cAMP production IC50 [2]: 4.4 nM
Inhibition of FSK-induced cAMP production IC50 [3]: 2.22 nM
Internalization EC50 [3]: 2.11 nM
ERK1/2 phosphorylation EC50 [9]: 71.3 nM
ERK1/2 phosphorylation EC50, fold against K17F [9]: 18 fold
Ki [5]: 2.11 nM

B3: P92 (peptide)
peptide: KFRRQRPRLSXKAPXPF
HELM: PEPTIDE1{[ac].K.F.[dR].R.[dQ].R.P.R.[dL].S.[Aib].K.[dA].P.[Nle].P.[O=C(O)[C@H](Cc1ccc(Br)cc1)N[*:1]]}$$$$V2.0
SMILES: CCCC[C@H](NC(=O)[C@@H]1CCCN1C(=O)[C@@H](C)NC(=O)[C@H](CCCCN)NC(=O)C(C)(C)NC(=O)[C@H](CO)NC(=O)[C@@H](CC(C)C)NC(=O)[C@H](CCCNC(=N)N)NC(=O)[C@@H]1CCCN1C(=O)[C@H](CCCNC(=N)N)NC(=O)[C@@H](CCC(N)=O)NC(=O)[C@H](CCCNC(=N)N)NC(=O)[C@@H](CCCNC(=N)N)NC(=O)[C@H](Cc1ccccc1)NC(=O)[C@H](CCCCN)NC(C)=O)C(=O)N1CCC[C@H]1C(=O)N[C@@H](Cc1ccc(Br)cc1)C(=O)O
selectivity factor towards the AT1 receptor with respect to the apelin receptor (AT1 receptor): 100 fold
cAMP production IC50 [7]: 0.62 nM
ERK1/2 phosphorylation EC50 [2]: 3.42 nM
Internalization EC50 [2]: 0.38 nM
cAMP production IC50 [2]: 0.56 nM
inhibition of forskolin-induced cAMP production IC50 [2]: 0.2 nM
Inhibition of FSK-induced cAMP production IC50 [3]: 0.56 nM
IC50 [4]: 0.21 nM
Ki [4]: 0.2 nM
Ki [5]: 0.09 nM

Molecule: H-KFRRQRPRLSHKGPMPF-OH [K17F (apelin-17)]
cAMP production IC50 [11]: 0.3 nM
ERK1/2 phosphorylation EC50 [12]: 4.08 nM
Internalization EC50 [12]: 0.26 nM
cAMP production IC50 [12]: 0.3 nM
IC50 cAMP inhibition [13]: 0.09 nM
ERK1/2 phosphorylation EC50 [14]: 4.08 nM
Inhibition of FSK-induced cAMP production IC50 [14]: 0.3 nM
Internalization EC50 [14]: 0.26 nM
Ki [15]: 0.26 nM
IC50 [16]: 0.29 nM
Ki [16]: 0.049 nM
Ki [17]: 0.06 nM

Molecule: {fluorocarbon group}-KF[dR]R[dQ]RPR[dL]S[Aib]K[dA]P[Nle]P[Phe(4-Br)] (reading uncertain; also: fluorocarbon group on the NH2α of Lys 1) [FLUORO-P92]
Ki [10]: 0.31 nM

Further lines, results first:

inhibition of forskolin-induced cAMP production IC50 [1]: 1 nM
Molecule: pE13F (pyroglutamyl form of apelin 13) (peptide)

inhibition of forskolin-induced cAMP production IC50 [1]: 0.1 nM
Molecule: pE13(4Br-Phe^13) (peptide)

IC50 cAMP inhibition [2]: 3.1 nM
cAMP production IC50 [2]: 3.1 nM
ERK1/2 phosphorylation EC50 [3]: 0.89 nM
Inhibition of FSK-induced cAMP production IC50 [3]: 3.13 nM
Internalization EC50 [3]: 0.41 nM
Ki [4]: 0.21 nM
Ki [5]: 0.08 nM
Molecule: {Propanoyl(3-C8F17)}-KFRRQRPRLSHKGPMPF [JFM V-0196B]

IC50 cAMP inhibition [2]: 3.8 nM
Ki [4]: 0.18 nM
B1: JFM V-0210/1 (peptide)
peptide: KKFRRQRPRLSHKGPMPF
modifications: fluorocarbon (perfluoroalkyl) group on the εNH2 of the added N-terminal linker L-lysine

inhibition of forskolin-induced cAMP production IC50 [2]: 43 nM
Ki [8]: 4.3 nM
Molecule: XRPRLSHKAPMPF (pGlu at 1; D-Ala at 9) [pE13F(D-Ala^9)]

IC50 cAMP inhibition [2]: 1.4 nM
Ki [4]: 1.33 nM
Molecule: KKFRRQRPRLSHKGPMPF (acyl group RC(O)- on the εNH2 of the added N-terminal linker L-lysine) [JFM V-0210/2]

IC50 cAMP inhibition [2]: 1 nM
Ki [4]: 0.16 nM
Molecule: K(heptadecafluoroundecanoyl)FRRQRPRLSHKGPMPF [JFM V-0220B]

Ki [10]: 0.25 nM
factor of decreased affinity as compared to P92 [10]: 2 to 3 fold
Molecule: {acyl group}-KF[dR]R[dQ]RPR[dL]S[Aib]K[dA]P[Nle]P[Phe(4-Br)] (reading uncertain; also: acyl group on the NH2α of Lys 1) [LIPO-P92]

inhibition of forskolin-induced cAMP production IC50 [2]: 1.2 nM
Ki [6]: 2.6 nM
Molecule: XRPRLSXKGPMPF (pGlu at 1; Aib (α-aminoisobutyric acid) at 7) [pE13F(Aib^7)]

IC50 cAMP inhibition [2]: 2 nM
Ki [4]: 1.43 nM
Molecule: K(Palmitoyl)FRRQRPRLSHKGPMPF [JFM V-0220A]

inhibition of forskolin-induced cAMP production IC50 [2]: 1 nM
Molecule: XRPRLSHKGPXPF (pGlu at 1; Nle (norleucine) at 11) [pE13F(Nle^11)]
